Results published in IntAct's records for PubMed 29892012.

B1: Coiled-coil domain-containing protein 120 (Homo sapiens), Q96HB5-4 (parent)
chain: MRREPRYQGQVGPDIHTDSERTLSSHQPRPLDSTKMEVKGQLISSPTFNAPAALFGEAAPQVKSERLRGLLDRQRTLQEALSLKLQELRKVCLQEAELTGQLPPECPLEPGERPQLVRRRPPTARAYPPPHPNQAHHSLCPAEELALEALEREVSVQQQIAAAARRLALAPDLSTEQRRRRRQVQADALRRLHELEEQLRDVRARLGLPVLPLPQPLPLSTGSVITTQGVCLGMRLAQLSQEDVVLHSESSSLSESGASHDNEEPHGCFSLAERPSPPKAWDQLRAVSGGSPERRTPWKPPPSDLYGDLKSRRNSVASPTSPTRSLPRSASSFEGRSVPATPVLTRGAGPQLCKPEGLHSRQWSGSQDSQMGFPRADPASDRASLFVARTRRSNSSEALLVDRAAGGGAGSPPAPLAPSASGPPVCKSSEVLYERPQPTPAFSSRTAGPPDPPRAARPSSAAPASRGAPRLPPVCGDFLLDYSLDRGLPRSGGGTGWGELPPAAEVPGPLSRRDGLLTMLPGPPPVYAADSNSPLLRTKDPHTRATRTKPCGLPPEAAEGPEVHPNPLLWMPPPTRIPSAGERSGHKNLALEGLRDWYIRNSGLAAGPQRRPVLPSVGPPHPPFLHARCYEVGQALYGAPSQAPLPHSRSFTAPPVSGRYYADFLYPPELSARLSDLTLEGEQSSSSDTQTPGTLV
partner: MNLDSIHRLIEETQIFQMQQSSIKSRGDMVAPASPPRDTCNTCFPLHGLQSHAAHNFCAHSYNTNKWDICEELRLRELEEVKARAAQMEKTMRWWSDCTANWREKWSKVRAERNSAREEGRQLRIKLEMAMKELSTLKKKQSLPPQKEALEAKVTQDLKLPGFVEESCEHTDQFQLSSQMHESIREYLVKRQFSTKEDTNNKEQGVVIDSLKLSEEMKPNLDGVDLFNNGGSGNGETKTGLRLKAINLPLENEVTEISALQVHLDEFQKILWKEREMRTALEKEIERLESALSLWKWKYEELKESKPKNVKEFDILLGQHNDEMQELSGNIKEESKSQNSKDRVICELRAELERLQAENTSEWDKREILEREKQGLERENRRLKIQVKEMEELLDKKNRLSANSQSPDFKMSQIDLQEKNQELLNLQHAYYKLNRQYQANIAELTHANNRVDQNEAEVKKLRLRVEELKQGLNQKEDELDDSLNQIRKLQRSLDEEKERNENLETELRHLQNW
B2: Vacuolar protein-sorting-associated protein 25 (Homo sapiens), Q9BRG1 (parent)
chain: MAMSFEWPWQYRFPPFFTLQPNVDTRQKQLAAWCSLVLSFCRLHKQSSMTVMEAQESPLFNNVKLQRKLPVESIQIVLEELRKKGNLEWLDKSKSSFLIMWRRPEEWGKLIYQWVSRSGQNNSVFTLYELTNGEDTEDEEFHGLDEATLLRALQALQQEHKAEIITVSDGRGVKFF
partner: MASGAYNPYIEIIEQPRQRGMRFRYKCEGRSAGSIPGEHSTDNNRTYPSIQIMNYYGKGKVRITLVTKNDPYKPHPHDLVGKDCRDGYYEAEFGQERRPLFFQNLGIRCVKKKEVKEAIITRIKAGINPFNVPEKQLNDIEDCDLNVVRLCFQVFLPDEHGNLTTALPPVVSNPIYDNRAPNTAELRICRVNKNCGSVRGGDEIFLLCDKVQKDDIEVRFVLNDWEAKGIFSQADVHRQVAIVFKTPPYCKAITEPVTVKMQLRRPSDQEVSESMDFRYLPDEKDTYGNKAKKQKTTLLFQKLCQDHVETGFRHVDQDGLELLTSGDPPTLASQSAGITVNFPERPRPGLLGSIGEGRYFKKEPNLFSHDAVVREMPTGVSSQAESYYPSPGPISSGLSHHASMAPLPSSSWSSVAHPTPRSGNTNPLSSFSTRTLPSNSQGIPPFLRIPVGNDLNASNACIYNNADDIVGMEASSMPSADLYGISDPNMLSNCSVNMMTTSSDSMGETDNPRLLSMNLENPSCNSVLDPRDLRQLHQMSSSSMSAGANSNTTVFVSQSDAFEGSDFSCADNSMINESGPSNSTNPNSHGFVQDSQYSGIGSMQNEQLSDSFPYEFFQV
B3: Protein VAC14 homolog (Homo sapiens), Q08AM6 (parent)
chain: MNPEKDFAPLTPNIVRALNDKLYEKRKVAALEIEKLVREFVAQNNTVQIKHVIQTLSQEFALSQHPHSRKGGLIGLAACSIALGKDSGLYLKELIEPVLTCFNDADSRLRYYACEALYNIVKVARGAVLPHFNVLFDGLSKLAADPDPNVKSGSELLDRLLKDIVTESNKFDLVSFIPLLRERIYSNNQYARQFIISWILVLESVPDINLLDYLPEILDGLFQILGDNGKEIRKMCEVVLGEFLKEIKKNPSSVKFAEMANILVIHCQTTDDLIQLTAMCWMREFIQLAGRVMLPYSSGILTAVLPCLAYDDRKKSIKEVANVCNQSLMKLVTPEDDELDELRPGQRQAEPTPDDALPKQEGTASGGPDGSCDSSFSSGISVFTAASTERAPVTLHLDGIVQVLNCHLSDTAIGMMTRIAVLKWLYHLYIKTPRKMFRHTDSLFPILLQTLSDESDEVILKDLEVLAEIASSPAGQTDDPGPLDGPDLQASHSELQVPTPGRAGLLNTSGTKGLECSPSTPTMNSYFYKFMINLLKRFSSERKLLEVRGPFIIRQLCLLLNAENIFHSMADILLREEDLKFASTMVHALNTILLTSTELFQLRNQLKDLKTLESQNLFCCLYRSWCHNPVTTVSLCFLTQNYRHAYDLIQKFGDLEVTVDFLAEVDKLVQLIECPIFTYLRLQLLDVKNNPYLIKALYGLLMLLPQSSAFQLLSHRLQCVPNPELLQTEDSLKAAPKSQKADSPSIDYAELLQHFEKVQNKHLEVRHQRSGRGDHLDRRVVL
partner: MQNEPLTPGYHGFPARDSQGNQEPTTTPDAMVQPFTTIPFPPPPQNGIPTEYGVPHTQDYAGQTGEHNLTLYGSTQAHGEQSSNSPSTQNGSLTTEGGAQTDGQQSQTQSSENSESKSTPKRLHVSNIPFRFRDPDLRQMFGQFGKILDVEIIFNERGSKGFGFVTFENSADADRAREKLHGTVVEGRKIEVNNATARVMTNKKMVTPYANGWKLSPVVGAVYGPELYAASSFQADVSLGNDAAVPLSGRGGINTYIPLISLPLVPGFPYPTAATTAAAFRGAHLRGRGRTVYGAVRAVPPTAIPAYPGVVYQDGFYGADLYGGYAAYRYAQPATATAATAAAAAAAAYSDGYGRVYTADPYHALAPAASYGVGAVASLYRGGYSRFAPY
B4: Pre-B-cell leukemia transcription factor 4 (Homo sapiens), Q9BYU1 (parent)
chain: MAAPPRPAPSPPAPRRLDTSDVLQQIMAITDQSLDEAQARKHALNCHRMKPALFSVLCEIKEKTVVSIRGIQDEDPPDAQLLRLDNMLLAEGVCRPEKRGRGGAVARAGTATPGGCPNDNSIEHSDYRAKLSQIRQIYHSELEKYEQACREFTTHVTNLLQEQSRMRPVSPKEIERMVGAIHGKFSAIQMQLKQSTCEAVMTLRSRLLDARRKRRNFSKQATEVLNEYFYSHLNNPYPSEEAKEELARKGGLTISQVSNWFGNKRIRYKKNMGKFQEEATIYTGKTAVDTTEVGVPGNHASCLSTPSSGSSGPFPLPSAGDAFLTLRTLASLQPPPGGGCLQSQAQGSWQGATPQPATASPAGDPGSINSSTSN
partner: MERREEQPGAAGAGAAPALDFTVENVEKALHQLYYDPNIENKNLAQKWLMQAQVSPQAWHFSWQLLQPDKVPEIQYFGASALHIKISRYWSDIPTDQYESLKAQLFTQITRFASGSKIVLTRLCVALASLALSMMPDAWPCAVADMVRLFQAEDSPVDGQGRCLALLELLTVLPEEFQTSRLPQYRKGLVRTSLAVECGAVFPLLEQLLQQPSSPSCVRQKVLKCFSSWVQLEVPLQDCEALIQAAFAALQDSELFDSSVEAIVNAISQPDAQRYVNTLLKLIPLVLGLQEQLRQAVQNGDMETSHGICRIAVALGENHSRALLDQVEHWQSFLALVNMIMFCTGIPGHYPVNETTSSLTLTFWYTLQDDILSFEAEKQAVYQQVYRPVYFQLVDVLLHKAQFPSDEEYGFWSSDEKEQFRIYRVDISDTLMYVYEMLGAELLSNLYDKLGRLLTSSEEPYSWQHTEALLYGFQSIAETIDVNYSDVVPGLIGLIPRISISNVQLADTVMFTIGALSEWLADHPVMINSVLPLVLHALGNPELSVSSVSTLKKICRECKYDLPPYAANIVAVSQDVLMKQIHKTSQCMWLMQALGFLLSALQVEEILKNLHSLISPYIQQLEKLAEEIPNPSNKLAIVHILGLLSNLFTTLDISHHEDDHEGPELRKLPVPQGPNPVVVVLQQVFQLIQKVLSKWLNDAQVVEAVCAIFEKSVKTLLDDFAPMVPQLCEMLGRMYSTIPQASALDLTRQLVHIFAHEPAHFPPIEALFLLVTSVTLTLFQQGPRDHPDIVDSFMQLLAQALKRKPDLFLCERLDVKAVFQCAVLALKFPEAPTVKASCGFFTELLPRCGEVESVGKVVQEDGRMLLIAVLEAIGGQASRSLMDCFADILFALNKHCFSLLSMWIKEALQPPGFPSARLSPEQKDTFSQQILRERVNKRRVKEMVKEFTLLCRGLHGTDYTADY
B5: Synaptotagmin-16 (Homo sapiens), Q17RD7 (parent)
chain: MVLAMASQDVQNFFQPFSSWISRVYEALQQAGDMLSASLVNISKQDSKLSDKLDQDLDNIQIQETYFEDEEQDNDWSQEDANSLFLEVDHFSCCNSDLQDSAQNSSPSLSQHAKDSCSTMSQWPNWASDDRKLPHVLSSIAEEEHHLEKQRSGLQHGFDSQLPGTLETVNGKKQVNSFGDDEELSTSSDSDEEVIKQFEISVSRSQSFRSVTSEKGKQTGLEQKPKFSRSLLTHGEDGTEVSACEDLDGASQRRYSENLSYGEDDHIPAHSQSPCERGDAKHHGTSHQESSVVQSLRRQSTEGSLEMETAFNSRGFEDSYATDSSSMWSPEEQDRTNLQVPSGVSEPISKCGDLDVIFEYRAASQKLTVTIVRAQGLPDKDRSGVNSWQVHVVLLPGKKHRGRTNIQRGPNPVFREKVTFAKLEPRDVAACAVRFRLYAARKMTRERMMGEKLFYLSHLHPEGEMKVTLVLEPRSNISSGGSPLSPSAVSHSDSTSSTQSLSHGGAPELLVGLSYNATTGRLSVEMIKGSHFRNLAVNRAPDTYGKLFLLNSVGQEMSRCKTSIRRGQPNPVYKETFVFQVALFQLSDVTLMISVYNRRTMKRKEMIGWIALGQNSSGEEEQDHWEEMKETKGQQICRWHTLLES

Variants of: B1
Details: with CCDC102B

| Variant | effect of a mutation on the interaction |
| --- | --- |
| R346W | with no effect |

Variants of: B2
Details: with rel_human REL

| Variant | effect of a mutation on the interaction |
| --- | --- |
| P58Q | disrupting interaction strength |

Variants of: B3
Details: with rfox2_human RBFOX2, O43251

| Variant | effect of a mutation on the interaction |
| --- | --- |
| A127S | with no effect |

Variants of: B4
Details: with ipo13_human IPO13, O94829

| Variant | effect of a mutation on the interaction |
| --- | --- |
| A247T | disrupting interaction strength |

Variants of: B5
Details: with praf1_human RABAC1, Q9UI14
praf1_human RABAC1, Q9UI14, sequence (Q9UI14 whole entry): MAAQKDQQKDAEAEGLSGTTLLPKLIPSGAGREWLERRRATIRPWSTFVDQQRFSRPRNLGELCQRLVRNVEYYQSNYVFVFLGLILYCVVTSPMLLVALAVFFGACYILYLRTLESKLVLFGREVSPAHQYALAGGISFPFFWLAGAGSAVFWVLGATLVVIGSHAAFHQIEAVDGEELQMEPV

| Variant | effect of a mutation on the interaction |
| --- | --- |
| R441W | with no effect |

Variants of: B5
Details: with rtn4_human RTN4, Q9NQC3
rtn4_human RTN4, Q9NQC3, sequence (Q9NQC3 whole entry): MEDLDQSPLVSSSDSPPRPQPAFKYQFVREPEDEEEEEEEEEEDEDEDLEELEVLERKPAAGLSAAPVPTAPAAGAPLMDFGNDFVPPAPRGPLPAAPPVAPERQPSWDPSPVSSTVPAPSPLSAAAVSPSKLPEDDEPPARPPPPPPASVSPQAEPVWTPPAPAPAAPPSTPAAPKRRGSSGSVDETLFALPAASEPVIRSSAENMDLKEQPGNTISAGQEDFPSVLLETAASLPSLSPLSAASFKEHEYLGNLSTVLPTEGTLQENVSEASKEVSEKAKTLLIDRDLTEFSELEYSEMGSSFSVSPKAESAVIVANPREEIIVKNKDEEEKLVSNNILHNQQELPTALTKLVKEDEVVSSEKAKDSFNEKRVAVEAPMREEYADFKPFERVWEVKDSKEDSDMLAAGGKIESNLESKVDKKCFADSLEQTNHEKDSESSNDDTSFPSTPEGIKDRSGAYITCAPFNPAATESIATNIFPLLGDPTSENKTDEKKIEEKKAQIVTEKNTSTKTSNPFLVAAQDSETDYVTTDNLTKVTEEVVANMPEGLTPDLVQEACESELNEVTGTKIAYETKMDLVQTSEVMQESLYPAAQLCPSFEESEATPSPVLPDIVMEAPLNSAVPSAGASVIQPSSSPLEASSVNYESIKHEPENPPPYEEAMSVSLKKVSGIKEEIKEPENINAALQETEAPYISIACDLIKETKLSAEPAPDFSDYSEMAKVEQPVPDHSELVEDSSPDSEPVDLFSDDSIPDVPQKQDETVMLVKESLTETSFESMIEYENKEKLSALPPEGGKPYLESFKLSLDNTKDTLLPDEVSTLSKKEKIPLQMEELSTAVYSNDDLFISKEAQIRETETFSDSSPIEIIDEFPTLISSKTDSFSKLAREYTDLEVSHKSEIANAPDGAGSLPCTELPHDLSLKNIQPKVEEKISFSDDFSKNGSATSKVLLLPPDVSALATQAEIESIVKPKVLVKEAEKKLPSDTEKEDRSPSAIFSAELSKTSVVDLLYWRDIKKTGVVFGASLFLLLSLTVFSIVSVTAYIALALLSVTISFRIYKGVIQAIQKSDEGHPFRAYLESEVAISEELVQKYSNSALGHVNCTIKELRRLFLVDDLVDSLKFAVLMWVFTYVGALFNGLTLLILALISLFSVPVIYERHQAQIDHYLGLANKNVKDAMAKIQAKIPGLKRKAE

| Variant | effect of a mutation on the interaction |
| --- | --- |
| R441W | with no effect |
